We go through two proteins from patent US20090047272.

This data set has as its target G-actin in human serum.

Positions count from the first letter of the chain named. Numbers in names are those of the source.

B1: wild-type human DNase I (protein)
chain: LKIAAFNIQTFGETKMSNATLVSYIVQILSRYDIALVQEVRDSHLTAVGKLLDNLNQDAPDTYHYVVSEPLGRNSYKERYLFVYRPDQVSAVDSYYYDDGCEPCGNDTFNREPAIVRFFSRFTEVREFAIVPLHAAPGDAVAEIDALYDVYLDVQEKWGLEDVMLMGDFNAGCSYVRPSQWSSIRLWTSPTFQWLIPDSADTTATPTHCAYDRIVVAGMLLRGAVVPDSALPFNFQAAYGLSDQLAQAISDHYPVEVMLK
B1: the Average T50 (min) 50% DNA hydrolysis in human serum was 28 min and the “Time T50 (min) 50% DNA hydrolysis in human serum” value is 26; 28; 30.

B2: actin-resistant version of DNase I, arDNase (+1), substitution A114R (protein)
chain: B1 chain with A114R
For the protein B2, the Average T50 (min) 50% DNA hydrolysis in human serum is 3 min and the “Time T50 (min) 50% DNA hydrolysis in human serum” value is listed as 2; 3; 4.
